Measured values: patent US20090053213A1 (MorphoSys, published 2009)
Residue numbers refer to the chain shown, from its start.

T1: human IL-3 (human, UniProt P08700 20-152)
T1 construct: Bought recombinant protein
T1 sequence (looked up): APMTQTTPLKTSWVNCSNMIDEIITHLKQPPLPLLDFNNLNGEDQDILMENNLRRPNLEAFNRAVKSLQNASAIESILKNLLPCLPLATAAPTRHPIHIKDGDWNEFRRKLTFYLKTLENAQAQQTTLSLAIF

T2: rat GM-CSF (rat, UniProt P48750 18-144)
T2 construct: Bought recombinant protein; also called rat-GM-CSF (Peprotech); rat recombinant GM-CSF
T2 sequence (looked up): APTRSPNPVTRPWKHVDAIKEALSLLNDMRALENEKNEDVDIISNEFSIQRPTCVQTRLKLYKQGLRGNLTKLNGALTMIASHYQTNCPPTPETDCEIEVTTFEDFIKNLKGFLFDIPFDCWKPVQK

T3: human M-CSF (human, UniProt P09603 33-190, limits assumed)
T3 construct: Bought recombinant protein
T3 sequence (looked up): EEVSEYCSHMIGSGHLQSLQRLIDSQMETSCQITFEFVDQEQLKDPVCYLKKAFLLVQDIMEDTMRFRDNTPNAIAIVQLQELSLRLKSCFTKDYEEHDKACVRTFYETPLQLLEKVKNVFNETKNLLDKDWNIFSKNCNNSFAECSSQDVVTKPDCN

T4: mouse GM-CSF (mouse, UniProt P01587 18-141)
T4 construct: Bought recombinant protein
T4 sequence (looked up): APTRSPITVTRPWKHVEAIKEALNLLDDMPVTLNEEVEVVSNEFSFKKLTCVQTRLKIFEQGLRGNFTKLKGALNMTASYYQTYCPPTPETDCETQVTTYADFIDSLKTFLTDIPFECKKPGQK

T5: human IL-4 (human, UniProt P05112 25-153)
T5 construct: Bought recombinant protein
T5 sequence (looked up): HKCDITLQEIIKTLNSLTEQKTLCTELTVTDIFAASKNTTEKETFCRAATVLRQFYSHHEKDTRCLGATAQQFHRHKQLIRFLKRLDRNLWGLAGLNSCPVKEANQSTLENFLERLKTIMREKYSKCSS

T6: human IL-5 (human, UniProt P05113 20-134)
T6 construct: Bought recombinant protein
T6 sequence (looked up): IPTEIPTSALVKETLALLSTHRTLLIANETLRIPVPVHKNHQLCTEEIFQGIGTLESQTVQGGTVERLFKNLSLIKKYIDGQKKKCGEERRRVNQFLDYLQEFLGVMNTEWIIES

B1: MOR04251 Fab (Fab, V domains shown)
VH: QVQLVESGGGLVQPGGSLRLSCAASGFTFSSHWMSWVRQAPGKGLEWVSNIWRGPYIYYADSVKGRFTISRDNSKNTLYLQMNSLRAEDTAVYYCARFQGYGGGFDYWGQGTLVTVSS
VL: DIELTQPPSVSVAPGQTARISCSGDNLPGKYVHWYQQKPGQAPVLVIYYDSNRPSGIPERFSGSNSGNTATLTISGTQAEDEADYYCQSRTQTTIVFGGGTKLTVLG
B2: MOR04252 Fab (Fab, V domains shown)
VH: QVQLVESGGGLVQPGGSLRLSCAASGFTFSSYWMNWVRQAPGKGLEWVSGIENKYAGGATYYAASVKGRFTISRDNSKNTLYLQMNSLRAEDTAVYYCARGFGTDFWGQGTLVTVSS
VL: DIELTQPPSVSVAPGQTARISCSGDSIGKKYAYWYQQKPGQAPVLVIYKKRPSGIPERFSGSNSGNTATLTISGTQAEDEADYYCSSWDSTGLVFGGGTKLTVLG
notes: Fab with FLAG and 6xHis tags
B3: MOR04287 Fab (Fab, V domains shown)
VH: B2 VH with Y55R, Y61F
VL: B2 VL
notes: Fab with FLAG and 6xHis tags
B4: MOR04290 Fab (Fab, V domains shown)
VH: B2 VH with N53S, Y55W, S65G
VL: B2 VL
notes: Fab with FLAG and 6xHis tags
B5: MOR04350 Fab (Fab, V domains shown)
VH: B2 VH with Y55R, Y61F
VL: B2 VL with S87A, D89G, S90D, T91K, L93M
notes: X-cloned Fab (VH of MOR04287 x VL of MOR04302) with FLAG and 6xHis tags
B6: MOR04354 Fab (Fab, V domains shown)
VH: B2 VH with N53S, Y55W, S65G
VL: B2 VL with S87A, D89G, S90D, T91K, L93M
notes: X-cloned Fab (VH of MOR04290 x VL of MOR04302) with FLAG and 6xHis tags
B7: MOR04302 Fab (Fab, V domains shown)
VH: QVQLVESGGGLVQPGGSLRLSCAASGFTFSSYWMNWVRQAPGKGLEWVSGISYSGSETYYADSVKGRFTISRDNSKNTLYLQMNSLRAEDTAVYYCARGFGTDFWGQGTLVTVSS
VL: B2 VL with S87A, D89G, S90D, T91K, L93M
notes: Fab with FLAG and 6xHis tags
B8: MOR03684 Fab (Fab, V domains shown)
VH: QVQLVESGGGLVQPGGSLRLSCAASGFTFSSHWMSWVRQAPGKGLEWVSNGIFSDGSATYYADSVKGRFTISRDNSKNTLYLQMNSLRAEDTAVYYCARFQGYGGGFDYWGQGTLVTVSS
VL: B1 VL
notes: carries two C-terminal tags (FLAG and 6xHis); also called antibody no
B9: MOR03682 Fab (Fab, V domains shown)
VH: QVQLVQSGAEVKKPGSSVKVSCKASGGTFNSFLISWVRQAPGQGLEWMGGIIPIFGTANYAQKFQGRVTITADESTSTAYMELSSLRSEDTAVYYCARKFISDSWGQGTLVTVSS
VL: DIQMTQSPSSLSASVGDRVTITCRASQTINNYLNWYQQKPGKAPKLLIYTASNLQSGVPSRFSGSGSGTDFTLTISSLQPEDFAVYYCQQYSGSPMTFGQGTKVEIKR
notes: Parental HuCAL GOLD Fab with C-terminal FLAG and 6xHis tags
B10: MOR04283 Fab (Fab, V domains shown)
VH: B9 VH with G50A, I52S, I54W, F55D, T57V, A58T, N59G
VL: B9 VL
notes: Fab with FLAG and 6xHis tags
B11: MOR04297 Fab (Fab, V domains shown)
VH: B9 VH
VL: B9 VL with V85T, G93W, S94V, M96H
notes: Fab with FLAG and 6xHis tags
B12: MOR04342 Fab (Fab, V domains shown)
VH: B9 VH with G50A, I52S, I54W, F55D, T57V, A58T, N59G
VL: B9 VL with V85T, G93W, S94V, M96H
notes: X-cloned Fab (VH of MOR04283 x VL of MOR04297) with FLAG and 6xHis tags

Each binder was assayed against T7, human GM-CSF (human, UniProt P04141 18-144) (assay: FACS receptor inhibition assay: antibody pre-incubated with 0.5 µg/ml biotinylated GM-CSF, binding to GM-CSF receptor alpha on CHO-GMRa#11 cells).
T7 construct: mature; the preparation is named under assay or readout; also called hGM-CSF; recombinant human GM-CSF
T7 sequence (P04141 18-144): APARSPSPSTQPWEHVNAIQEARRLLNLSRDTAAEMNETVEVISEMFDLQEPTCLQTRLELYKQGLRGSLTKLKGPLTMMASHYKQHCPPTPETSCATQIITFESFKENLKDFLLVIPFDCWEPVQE
Experimental: (§1) All stainings were performed in round bottom 96-well culture plates (Nalge Nunc) with 1-5×10⁵ cells per well. […] Cells were then washed once with 150 μl FACS buffer/well and taken up in 100 μl phycoerythrin-labeled streptavidin (BD Biosciences Pharmingen) which has been diluted 1:400 in FACS buffer. […] IC₅₀ values were determined from the dose response curves obtained using GraphPad Prism v3.03 software applying a non-linear regression curve fit.
(§2) IC₅₀ values were determined from the dose response curves obtained using GraphPad Prism v3.03 software applying a non-linear regression curve fit.

Binder | IC50 [nM]
B1 | 53
B2 | 26
B3 | 25
B4 | 27
B5 | 24
B6 | 26
B7 | 24
B8 | > 400

Each binder was assayed against T7, human GM-CSF (assay: SPR (Biacore), Fab over immobilized recombinant human GM-CSF (Peprotech), F1 chip; affinity estimated from off-rates).
Experimental: A respective amount of HSA was immobilized on the reference flow cell. […] Fab was applied in concentration series of 6.3-200 nM at a flow rate of 20 μl/min.

Binder | Kd [nM]
B1 | 0.07
B2 | 0.055
B4 | 0.122
B5 | 0.019
B6 | 0.021
B7 | 0.174
B8 | 6.42

Each binder was assayed against T7, human GM-CSF (assay: cell-based or functional assay).

Binder | IC50 (pM) in TF-1 proliferation assay, human GM-CSF 0.25 ng/ml [pM] | IC50 x-fold improved compared to BVD2-21C11, TF-1 proliferation assay [fold] | IC50 x-fold improved compared to Mab215, TF-1 proliferation assay [fold]
B1 | 463 | 14.2 | 9.3
B2 | 2010 | 3.2 | 2.1
B3 | 3380 | 1.9 | 1.3
B4 | 696 | 9.4 | 6.2
B5 | 82 | 80 | 52.6
B6 | 56 | 117 | 77.1
B7 | 10700 |  | 
B8 | > 200000 |  | 

These binders were tested against T7, human GM-CSF (assay: solution equilibrium titration (SET, ECL/BioVeris), Fab with human GM-CSF (Leucomax) in solution).

Binder | Kd [nM]
B1 | 0.0074
B2 | 0.006
B3 | 0.0179
B4 | 0.0111
B5 | 0.0011
B6 | 0.0028
B7 | 0.0635
B8 | 16
B9 | 11.4
B10 | 0.113
B11 | 0.0492
B12 | 0.0049

Target: T7, human GM-CSF
Assay: cell-based or functional assay
Remark: another data set of the same source

Binder | IC50 (pM) in TF-1 proliferation assay, human GM-CSF [pM]
B9 | > 200000
B10 | 17300
B11 | 14000
B12 | 80

Target: T7, human GM-CSF
Assay: cell-based or functional assay
Remark: another data set of the same source

Binder | fold improvement of IC50 in TF-1 proliferation assay compared to parental MOR03929 [fold] | inhibition of TF1 cell proliferation at 2 µM Fab, human GM-CSF (Leucomax) 0.25 ng/ml [%]
B5 | > 2000 | 
B6 | > 2000 | 
B8 |  | > 50
B9 |  | > 50

The binders below were run against T7, human GM-CSF (assay: FACS receptor inhibition assay: inhibition of binding of 0.5 µg/ml biotinylated GM-CSF to GM-CSF receptor alpha on CHO-GMRa#11 cells).
Experimental: as §1, §2

Binder | % inhibition at 5 µg/ml antibody [%]
B1 | ~100
B2 | ~75
B3 | ~75
B4 | ~75
B5 | ~75
B6 | ~75
B7 | ~75
B8 | ~25

These binders were tested against T1, human IL-3 (assay: SPR (Biacore 3000), Fab captured on anti-F(ab)2, cytokine as analyte).
Experimental: (§3) This was performed in a capture set-up by surface plasmon resonance (Biacore 3000, Uppsala, Sweden).
(§4) CM5 chips (Biacore, Sweden) were coated with 5000-6000 RU anti-F(ab)₂ (Dianova, Affinipure F(ab)₂ Fragment Goat Anti-Human IgG, F(ab)₂ Fragment specific); 80 μg/ml 10 mM acetate buffer, pH4 on all 4 flow cells, using standard EDC-NHS amine coupling chemistry. […] After capturing of the specific Fab, buffer was injected, to determine the dissociation of anti-Fab/Fab interaction. In a following cycle, the analyte growth factor was injected (20 μl, flow rate 20 μl/min) at a concentration range between 15 and 2000 nM for the determination of the specific signal. Afterwards the achieved buffer sensogram was manually subtracted from the specific one. After each cycle, the flow cells were regenerated with 100 mM HCl (5 μl).

Binder | binding result
B8 | no binding (tested: analyte 15 to 2000 nM)
B9 | no binding (tested: analyte 15 to 2000 nM)

What follows are binders tested against T2, rat GM-CSF in the same assay as above.
Experimental: as §3, §4

Binder | binding result
B8 | no binding (tested: analyte 15 to 2000 nM)
B9 | no binding (tested: analyte 15 to 2000 nM)

These binders were tested against T3, human M-CSF in the same assay as above.
Experimental: as §3, §4

Binder | binding result
B8 | no binding (tested: analyte 15 to 2000 nM)
B9 | no binding (tested: analyte 15 to 2000 nM)

What follows are binders tested against T4, mouse GM-CSF in the same assay as above.
Experimental: as §3, §4

Binder | binding result
B8 | no binding (tested: analyte 15 to 2000 nM)
B9 | no binding (tested: analyte 15 to 2000 nM)

Each binder was assayed against T5, human IL-4 in the same assay as above.
Experimental: as §3, §4

Binder | binding result
B8 | no binding (tested: analyte 15 to 2000 nM)
B9 | no binding (tested: analyte 15 to 2000 nM)

What follows are binders tested against T8, human IL-13 (human, UniProt P35225 35-146) in the same assay as above.
T8 construct: Bought recombinant protein
T8 sequence (P35225 35-146 limits assumed): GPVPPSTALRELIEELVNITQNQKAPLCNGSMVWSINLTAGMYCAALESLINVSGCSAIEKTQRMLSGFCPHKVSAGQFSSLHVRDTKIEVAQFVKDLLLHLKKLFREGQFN
Experimental: as §3, §4

Binder | binding result
B8 | no binding (tested: analyte 15 to 2000 nM)
B9 | no binding (tested: analyte 15 to 2000 nM)

The binders below were run against T6, human IL-5 in the same assay as above.
Experimental: as §3, §4

Binder | binding result
B8 | no binding (tested: analyte 15 to 2000 nM)
B9 | no binding (tested: analyte 15 to 2000 nM)
